Experimental data taken from USRE46585 (LABORATOIRE FRANCAIS DU FRACTIONNEMENT ET DES …, dated 2017).
Residue numbers refer to the chain shown, from its start.

B1: C3A_01 (other)
chain: CPPCPAPELLGGPSVFLFPPKPKDTLMISRTPEVTCVVVDVSHEDPEVKFNWYVDGVEVHNAKTKPREEQYNSTYRVVSVLTVLHQDWLDGKEYKCKVSNKALPVPIEKTISKAKGQPREPQVYTLPPSRDELTKNQVSLTCLVKGFYPSDIAVEWESNGQPENNYKTTPPVLDSDGSFFLYSKLTVDKSRWQQGNVFSCSVMHEALHYHYTQKSLSLSPGK
notes: EU numbering
B2: C5A_20 (other)
chain: B1 chain with V105A, S190D
notes: EU numbering
B3: C5A_03 (other)
chain: B1 chain with V39A, V105A
notes: EU numbering
B4: C6A_35 (other)
chain: B1 chain with T25A
notes: EU numbering
B5: C4A_25 (other)
chain: B1 chain with V172M
notes: EU numbering
B6: C4A_29 (other)
chain: B1 chain with T82P, V105A, N136S, Q137R
notes: EU numbering
B7: C5A_44 (other)
chain: B1 chain with V105A, N164K
notes: EU numbering
B8: C3A_21 (other)
chain: B1 chain with S175P
notes: EU numbering
B9: C4A_45 (other)
chain: B1 chain with K21R, H60Y
notes: EU numbering
B10: C5A_12 (other)
chain: B1 chain with V105A, Q137E, N164K
notes: EU numbering
B11: C3A_39 (other)
chain: B1 chain with A6V, D90N, V105A, Q117E
notes: EU numbering
B12: C3A_15 (other)
chain: B1 chain with V39E, T82A, D90N, V105A, A153V, Y209N
notes: EU numbering
B13: C7A_13 (other)
chain: B1 chain with F16L, V39E, D90N, V105A, A153V, N196T
notes: EU numbering
B14: C5A_75 (other)
chain: B1 chain with T82N, V105A
notes: EU numbering
B15: C5A_41 (other)
chain: B1 chain with A102T, Q137R
notes: EU numbering
B16: C8A_08 (other)
chain: B1 chain with V39A
notes: EU numbering
B17: C5A_58 (other)
chain: B1 chain with V39E, D90N, V105A, A153V, P171L, Y209S
notes: EU numbering
B18: C5A_50 (other)
chain: B1 chain with D45N, V105A
notes: EU numbering
B19: C7A_49 (other)
chain: B1 chain with T169A
notes: EU numbering
B20: C4A_01 (other)
chain: B1 chain with V105A, Q137R, N164K
notes: EU numbering
B21: C4A_24 (other)
chain: B1 chain with L84P
notes: EU numbering
B22: C7A_43 (other)
chain: B1 chain with V39E, T82P, D90N, V105A, A153V, P171S, Y209S
notes: EU numbering
B23: C4A_41 (other)
chain: B1 chain with Q137E
notes: EU numbering
B24: C5A_63 (other)
chain: B1 chain with S73N
notes: EU numbering
B25: C3A_24 (other)
chain: B1 chain with T82P, D90N, V105A, N164T, D176G, N196T
notes: EU numbering
B26: C4A_27 (other)
chain: B1 chain with V39A, T74A, D90N, V105A, A153V, E157G
notes: EU numbering
B27: C7A_22 (other)
chain: B1 chain with V105A, K109E, A153V
notes: EU numbering
B28: C3A_43 (other)
chain: B1 chain with V105A, R191G
notes: EU numbering
B29: C4A_06 (other)
chain: B1 chain with P5T
notes: EU numbering
B30: C7A_27 (other)
chain: B1 chain with V39E, T82N, D90N, V105A, A153V, V172M
notes: EU numbering
B31: C3A_31 (other)
chain: B1 chain with N164K, D176G
notes: EU numbering
B32: C3A_07 (other)
chain: B1 chain with T82P, D90N, V105T, A153V, Y209N
notes: EU numbering
B33: C7A_18 (other)
chain: B1 chain with V39E, D90N, V105A, A153V, K189R, N196T
notes: EU numbering
B34: C8A_14 (other)
chain: B1 chain with V80A, D90N, V105A, Q161R
notes: EU numbering
B35: C6A_05 (other)
chain: B1 chain with T82A
notes: EU numbering
B36: C5A_15 (other)
chain: B1 chain with V78A, E157V
notes: EU numbering
B37: C4A_36 (other)
chain: B1 chain with K95T, V105A
notes: EU numbering
B38: C3A_42 (other)
chain: B1 chain with N164K, V172M
notes: EU numbering
B39: C3A_08 (other)
chain: B1 chain with V39E, D90N, V105A, P127S, A153V, Y209S
notes: EU numbering
B40: C4A_18 (other)
chain: B1 chain with A153V
notes: EU numbering
B41: C5A_19 (other)
chain: B1 chain with V39A, V80A
notes: EU numbering
B42: C8A_41 (other)
chain: B1 chain with V105A, E157V, H208P
notes: EU numbering
B43: C7A_37 (other)
chain: B1 chain with F16L, V105A, N164K
notes: EU numbering
B44: C7A_89 (other)
chain: B1 chain with T82P, D90N, A102T, V105A, N164T, N196T
notes: EU numbering
B45: C4A_28 (other)
chain: B1 chain with V39E, D90N, V105A, A153V
notes: EU numbering
B46: C4A_15 (other)
chain: B1 chain with E8D, V105A
notes: EU numbering
B47: C4A_32 (other)
chain: B1 chain with V39E, V105A, A153V, Y209N
notes: EU numbering
B48: C6A_36 (other)
chain: B1 chain with T82P, V105A, E157G, Q194H
notes: EU numbering
B49: C7A_68 (other)
chain: B1 chain with V39E, V105A, A153V, N165S, G195R
notes: EU numbering
B50: C7A_02 (other)
chain: B1 chain with V39E, D90N, V105A, K145R, A153V
notes: EU numbering
B51: C6A_04 (other)
chain: B1 chain with D90N, V105A, Q117R, E157V
notes: EU numbering

These binders were tested against T1, FcRn-p3 fusion protein (human, UniProt P55899 24-297; P61769 21-119) (assay: phage ELISA pH6).
T1 construct: baculovirus expressed; coated on ELISA wells; not shown: amino terminal part of bacteriophage p3 protein and CVDE protein

| Ratio/Fc-H [fold] | Binder |
| --- | --- |
| 2.5 | B1 |
| 2.6 | B2 |
| 2.7 | B3 |
| 1.8 | B4 |
| 2.8 | B5 |
| 3.8 | B6 |
| 2.7 | B7 |
| 3 | B8 |
| 2.3 | B9 |
| 3.8 | B10 |
| 1.8 | B11 |
| 1.9 | B12 |
| 2.3 | B13 |
| 2.8 | B14 |
| 1.3 | B15 |
| 2 | B16 |
| 2.8 | B17 |
| 2.3 | B18 |
| 1.7 | B19 |
| 2.4 | B20 |
| 2.3 | B21 |
| 3.6 | B22 |
| 3.4 | B23 |
| 2 | B24 |
| 2.9 | B25 |
| 2.7 | B26 |

| Ratio/Fc-H [fold] | Binder |
| --- | --- |
| 1.8 | B27 |
| 2.5 | B28 |
| 3.6 | B29 |
| 2.6 | B30 |
| 2.2 | B31 |
| 1.3 | B32 |
| 2.8 | B33 |
| 2.4 | B34 |
| 1.9 | B35 |
| 3.4 | B36 |
| 2.8 | B37 |
| 3.7 | B38 |
| 3 | B39 |
| 2.5 | B40 |
| 2.9 | B41 |
| 2.7 | B42 |
| 2.2 | B43 |
| 2.3 | B44 |
| 3.4 | B45 |
| 2.2 | B46 |
| 1.7 | B47 |
| 3.4 | B48 |
| 3.4 | B49 |
| 2.2 | B50 |
| 2.9 | B51 |

The binders below were run against T1, FcRn-p3 fusion protein (assay: phage ELISA pH6 (est.)).

| Ratio/FWT [fold] | Binder |
| --- | --- |
| 8 | B1 |
| 8.4 | B2 |
| 8.7 | B3 |
| 5.7 | B4 |
| 8.9 | B5 |
| 12 | B6 |
| 8.7 | B7 |
| 9.8 | B8 |
| 7.2 | B9 |
| 12.1 | B10 |
| 5.6 | B11 |
| 6 | B12 |
| 7.4 | B13 |
| 8.9 | B14 |
| 4.3 | B15 |
| 6.4 | B16 |
| 9.1 | B17 |
| 7.3 | B18 |
| 5.3 | B19 |
| 7.5 | B20 |
| 7.5 | B21 |
| 11.5 | B22 |
| 10.8 | B23 |
| 6.3 | B24 |
| 9.2 | B25 |
| 8.7 | B26 |

| Ratio/FWT [fold] | Binder |
| --- | --- |
| 5.7 | B27 |
| 8.1 | B28 |
| 11.4 | B29 |
| 8.2 | B30 |
| 6.9 | B31 |
| 4.2 | B32 |
| 8.9 | B33 |
| 7.6 | B34 |
| 6.2 | B35 |
| 10.9 | B36 |
| 8.9 | B37 |
| 12 | B38 |
| 9.7 | B39 |
| 8.1 | B40 |
| 9.3 | B41 |
| 8.8 | B42 |
| 6.9 | B43 |
| 7.4 | B44 |
| 10.8 | B45 |
| 6.9 | B46 |
| 5.4 | B47 |
| 10.9 | B48 |
| 10.9 | B49 |
| 6.9 | B50 |
| 9.4 | B51 |
